According to publication PMC5240567, “New Insights into Cooperative Binding of Homeodomain Transcription Factors PREP1 and PBX1 to DNA”:
Positions count from the first letter of the chain named.

Assays:
[1] = molecular target: T1, PREP1HD KKKK->AAAA (UniProt P55347 240-344, K331A;K333A;K334A;K335A); assay: fluorescence polarization; FP and EMSA: 20 mM Na/K phosphate pH 7.2, 150 mM NaCl, 5% glycerol, 1 mM TCEP, room temperature (FP 9 nM DNA, 30 min; EMSA gel run at 4 C in 0.5x TBE); NMR: 20; settings: protein: recombinant; tags: GST cleaved (pGEX-6P); label: 5' 6-FAM (FP); unlabeled in EMSA and NMR
T1 sequence: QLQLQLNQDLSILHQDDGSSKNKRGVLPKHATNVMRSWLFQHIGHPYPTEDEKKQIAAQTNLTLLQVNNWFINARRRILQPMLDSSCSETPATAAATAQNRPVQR

[2] = molecular target: T2, HOXB1HD;PBX1HD (;, UniProt P14653;P40424 171-266;227-317, |); assay: fluorescence polarization; HOXB1HD titrated into preformed PBX1HD:PMH; FP and EMSA: 20 mM Na/K phosphate pH 7.2, 150 mM NaCl, 5% glycerol, 1 mM TCEP, room temperature (FP 9 nM DNA, 30 min; EMSA gel run at 4 C in 0.5x TBE); NMR: 20; settings: protein: recombinant;recombinant; tags: GST cleaved (pGEX-6P);GST cleaved (pGEX-6P); copies: 1;1; label: 5' 6-FAM (FP); unlabeled in EMSA and NMR
T2 sequence (P14653 171-266, chain 1 of 2, one chain of several): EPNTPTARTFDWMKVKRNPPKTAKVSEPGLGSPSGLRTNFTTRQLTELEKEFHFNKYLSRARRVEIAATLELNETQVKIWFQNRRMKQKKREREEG

[3] = molecular target: T3, PREP1HD;PBX1HD (;, UniProt P55347;P40424 240-344;227-317, |); assay: fluorescence polarization; PREP1HD titrated into preformed PBX1HD (0.3 uM):PMH; FP and EMSA: 20 mM Na/K phosphate pH 7.2, 150 mM NaCl, 5% glycerol, 1 mM TCEP, room temperature (FP 9 nM DNA, 30 min; EMSA gel run at 4 C in 0.5x TBE); NMR: 20; settings: protein: recombinant;recombinant; tags: GST cleaved (pGEX-6P);GST cleaved (pGEX-6P); copies: 1;1; label: 5' 6-FAM (FP); unlabeled in EMSA and NMR
T3 sequence 1: T1 sequence with A92K, A94K, A95K, A96K
T3 sequence 2: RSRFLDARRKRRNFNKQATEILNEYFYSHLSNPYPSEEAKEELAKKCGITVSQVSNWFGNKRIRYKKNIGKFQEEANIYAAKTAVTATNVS

[4] = molecular target: T4, PREP1hd;PBX1HD (;, UniProt P55347;P40424 257-325;227-317, |); assay: fluorescence polarization; PREP1hd titrated into preformed PBX1HD (0.3 uM):PMH; FP and EMSA: 20 mM Na/K phosphate pH 7.2, 150 mM NaCl, 5% glycerol, 1 mM TCEP, room temperature (FP 9 nM DNA, 30 min; EMSA gel run at 4 C in 0.5x TBE); NMR: 20; settings: protein: recombinant;recombinant; tags: GST cleaved (pGEX-6P);GST cleaved (pGEX-6P); copies: 1;1; label: 5' 6-FAM (FP); unlabeled in EMSA and NMR
T4 sequence 1: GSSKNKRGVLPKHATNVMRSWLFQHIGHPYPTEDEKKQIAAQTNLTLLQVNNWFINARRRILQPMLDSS
T4 sequence 2: T3 sequence 2

[5] = molecular target: T2, HOXB1HD;PBX1HD; assay: fluorescence polarization; HOXB1HD titrated into preformed PBX1HD:control; FP and EMSA: 20 mM Na/K phosphate pH 7.2, 150 mM NaCl, 5% glycerol, 1 mM TCEP, room temperature (FP 9 nM DNA, 30 min; EMSA gel run at 4 C in 0.5x TBE); NMR: 20; settings: protein: recombinant;recombinant; tags: GST cleaved (pGEX-6P);GST cleaved (pGEX-6P); copies: 1;1; label: 5' 6-FAM (FP); unlabeled in EMSA
[6] = molecular target: T2, HOXB1HD;PBX1HD; assay: fluorescence polarization; HOXB1HD titrated into preformed PBX1HD:PH; FP and EMSA: 20 mM Na/K phosphate pH 7.2, 150 mM NaCl, 5% glycerol, 1 mM TCEP, room temperature (FP 9 nM DNA, 30 min; EMSA gel run at 4 C in 0.5x TBE); NMR: 20; settings: protein: recombinant;recombinant; tags: GST cleaved (pGEX-6P);GST cleaved (pGEX-6P); copies: 1;1; label: 5' 6-FAM (FP); unlabeled in EMSA

B1: PMH (dsDNA)
DNA 1: AGTGATTGACAGATTC
DNA 2: GAATCTGTCAATCACT
In the case of B1, the Kd [1] is reported as 21.8 ± 0.8 µM, the Kd [2] is reported as 1.3 ± 0.3 µM and the Kd [3] is reported as 1.9 ± 0.5 µM. It also gave a Kd [4] of 5.1 ± 1.8 µM.

B2: Control (dsDNA)
DNA 1: AGGATAACCTGGGATT
DNA 2: AATCCCAGGTTATCCT
B2 gave a Kd [5] of 34.7 ± 1.7 µM.

B3: PH (dsDNA)
DNA 1: AGAGTGATTGATAAGG
DNA 2: CCTTATCAATCACTCT
With B3 the Kd [6] was 0.39 ± 0.1 µM.
